Target: reconstituted mononucleosome with unmodified H3K56 (UniProt P68431)
Test: pull-down

fold of MSH3 pulled down against the H3K56ac-nucleosome: 4 fold
Substance: MutSβ (MSH2-MSH3 complex), purified (from UniProt P43246;P20585)
